Results on three molecules are retold here after PMC4381339, “Modeling autosomal recessive cutis laxa type 1C in mice reveals distinct functions for Ltbp-4 isoforms” (Disease Models & Mechanisms, 2015).

Test [1] has as its target rfibulin-4 and rfibulin-5 (mouse). Kind of test: SPR; Ltbp-4L-2xStrep and Ltbp-4S-2xStrep after PNGase F digest under non-denaturing conditions, flown over rfibulin-4 and rfibulin-5 immobilized on a Biacore chip; response compared before and after deglycosylation; n=2. For orientation: In SPR one partner is held on a chip, and binding of the other changes the refractive index at the surface.

In test [2] the target is T1, recombinant full-length fibulin-4 (mouse, UniProt Q9WVJ9 28-443).
T1 construct: Fibulin-4, mouse, full length after the signal peptide; also called rfibulin-4; source: HEK 293 EBNA cells, stably expressed, purified from conditioned medium (streptactin-Sepharose)
T1 sequence (looked up): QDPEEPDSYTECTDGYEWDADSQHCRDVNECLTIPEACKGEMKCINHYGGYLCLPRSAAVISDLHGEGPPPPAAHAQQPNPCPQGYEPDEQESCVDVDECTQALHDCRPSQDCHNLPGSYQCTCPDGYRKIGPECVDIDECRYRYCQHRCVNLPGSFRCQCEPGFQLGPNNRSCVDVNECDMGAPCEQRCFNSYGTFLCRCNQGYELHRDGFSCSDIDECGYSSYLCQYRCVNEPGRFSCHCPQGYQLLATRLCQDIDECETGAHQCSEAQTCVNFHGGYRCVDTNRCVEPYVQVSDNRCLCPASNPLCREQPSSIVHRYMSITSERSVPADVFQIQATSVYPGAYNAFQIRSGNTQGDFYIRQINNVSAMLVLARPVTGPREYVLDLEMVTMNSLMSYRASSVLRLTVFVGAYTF
The test can be described thus: SPR; BIAcore2000; 570 RUs of rfibulin-4 or 390 RUs of rfibulin-5 amine-coupled to carboxymethyldextran hydrogel 500M chips; Ltbp-4L-2xStrep (0-320 nM) or Ltbp-4S-2xStrep (0-80 nM) flown over as analyte; 1:1 Langmuir fits, kobs plotted against concentration; apparent Kd = koff/kon. The conditions noted are these: both partners purified.

The target in test [3] is T2, recombinant full-length fibulin-5 (mouse, UniProt Q9WVH9 24-448).
T2 construct: Fibulin-5, mouse, full length after the signal peptide; also called rfibulin-5; source: HEK 293 EBNA cells, stably expressed, purified from conditioned medium (streptactin-Sepharose)
T2 sequence (looked up): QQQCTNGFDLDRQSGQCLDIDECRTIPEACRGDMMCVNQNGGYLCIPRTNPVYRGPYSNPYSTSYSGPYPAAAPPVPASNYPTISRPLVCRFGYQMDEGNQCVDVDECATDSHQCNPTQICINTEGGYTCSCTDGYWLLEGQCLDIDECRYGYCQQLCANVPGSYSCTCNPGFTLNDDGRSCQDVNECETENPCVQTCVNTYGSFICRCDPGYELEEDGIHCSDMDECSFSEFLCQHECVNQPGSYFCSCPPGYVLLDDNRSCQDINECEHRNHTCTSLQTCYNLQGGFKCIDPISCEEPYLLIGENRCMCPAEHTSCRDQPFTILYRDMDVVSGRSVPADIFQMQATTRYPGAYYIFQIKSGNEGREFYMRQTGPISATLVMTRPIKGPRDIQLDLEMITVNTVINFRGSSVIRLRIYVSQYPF
The test is described as above. The conditions noted are these: both partners purified.

The molecule “Ltbp-4S-2xStrep after deglycosylation with PNGase F under non-denaturing conditions (domain or fragment)” gave a percent increase of the SPR signal after deglycosylation (against Ltbp-4S-2xStrep before deglycosylation) in test [1] of 15 to 20%.

B1: Ltbp-4L-2xStrep (N-terminal fragment of mouse Ltbp-4L) (domain or fragment, UniProt Q8K4G1-1 25-277, looked up)
chain: SGSSPSPSPSPIEKAVVPSHQAGVAACHCCLDQTPKSSRCTRASCRVRNCPPAKCTGLEGCLTPTPSVPSPSRSPVEKSQVSLNWQPLTLQEARALLRQRRPRGPWARALLKRRPPHRAPAGQARVLCPLICHNGGVCVKPDRCLCPPDFAGKFCQLHSSGARPPAPAMPGLTRSVYTMPLANHRDDEHGVASMVSVHVEHPQEASVVVHQVERVSGPWEEANPEALARAEAAARAEAAAPYTVLAQSAPRED
notes: the first 253 amino acids after the signal peptide (Ser25-Asp277); numbers count on: the long isoform Ltbp-4L; Cloned into a modified pCEP-Pu vector with a 3' 2xStrepII tag through NheI and XhoI; also called N-terminal Ltbp-4L; Ltbp-4L N-terminal fragment; source: HEK 293 EBNA cells, stably expressed, purified from conditioned medium (streptactin-Sepharose); not shown: 2xStrepII, C-terminal, kept
As to B1, in test [2], the Kd was found to be 3.1 nM; the off-rate (koff) (usually the rate constant with which the complex falls apart) was determined as 0.0041 s⁻¹; the kon – broadly, the second-order rate constant of association – is 1.3e+06 M⁻¹ s⁻¹. Also, in test [3], the Kd was determined as 2.4 nM, the koff is 0.0053 s⁻¹ and the association rate constant (kon) was determined as 2.2e+06 M⁻¹ s⁻¹.

B2: Ltbp-4S-2xStrep (N-terminal fragment of mouse Ltbp-4S) (domain or fragment, UniProt Q8K4G1-2 27-211, looked up)
chain: RPRERLRVRFTPAVCGLRCIHGPTGSRCTPTCAPRNATSVDSGAPGGAAPGGPGFRAFLCPLICHNGGVCVKPDRCLCPPDFAGKFCQLHSSGARPPAPAMPGLTRSVYTMPLANHRDDEHGVASMVSVHVEHPQEASVVVHQVERVSGPWEEANPEALARAEAAARAEAAAPYTVLAQSAPRED
modifications: N-linked glycosylation (shift after PNGase F), residue not given
notes: the first 185 amino acids after the signal peptide (Arg27-Asp211); numbers count on: the short isoform Ltbp-4S; Cloned into a modified pCEP-Pu vector with a 3' 2xStrepII tag through NheI and XhoI; also called N-terminal Ltbp-4S; Ltbp-4S N-terminal fragment; source: HEK 293 EBNA cells, stably expressed, purified from conditioned medium (streptactin-Sepharose); not shown: 2xStrepII, C-terminal, kept
For B2, in test [2], the Kd was determined as 15.4 nM, the koff is 0.0108 s⁻¹ and the on-rate (kon) amounted to 700000 M⁻¹ s⁻¹. In test [3], the Kd is 15.8 nM, the off-rate constant (koff) was determined as 0.0158 s⁻¹ and the kon amounted to 1e+06 M⁻¹ s⁻¹.
